# Source: the supplement of paper PMC9732359
# ± gives the uncertainty stated by the source.
# Assay: protein stability index of a GFP-peptide fusion (yeast GPS) (PSI 1-4); higher = more stable; sorted into four equal gates, so the index is relative within each strain
# Outline: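 Plasmids isolated from each sorting gate were PCR-amplified and Illumina-sequenced, and barcodes assigned the reads to strains. The gates, four of equal size, were set by GFP/Cherry fluorescence ratio on mid-log cultures in leucine-free medium. These cultures were yeast carrying a pooled library of tiled 17-residue yeast protein peptides fused downstream of GFP on a plasmid that also expresses Cherry. The protein stability index is the sum of every gate's read frequency times its gate number.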
Sequence,protein stability index (doa10∆),protein stability index (pdr5∆),protein stability index (san1∆),protein stability index (ubr1∆)
PSEDVAALKKTRKAARP [RPL6A],2.83 ± 0.062,3.02 ± 0.048,2.95 ± 0.039,3.05 ± 0.047
PSELNQLKMVNERELNV [RPC82],3.14 ± 0.13,2.94 ± 0.15,–,–
PSESEHPIRVLMASVIL [YDL116W/NUP84],1.87 ± 0.076,1.89 ± 0.064,1.75 ± 0.062,1.78 ± 0.08
PSFVKSGKLRDYQVQGL [ISW2],3.33 ± 0.076,3.39 ± 0.071,3.22 ± 0.039,3.31 ± 0.058
PSKTPEVYMRYRNFMVN [SWI3],1.8 ± 0.075,1.81 ± 0.072,1.82 ± 0.14,1.81 ± 0.062
PSLNNKISDDELERILK [RPB4],3.09 ± 0.096,2.9 ± 0.098,3.06 ± 0.09,3.21 ± 0.07
PSNESCSPWSLQISDIP [SRB5],2.87 ± 0.058,2.78 ± 0.047,2.97 ± 0.039,2.91 ± 0.032
PSSSDSNGPRAAKKRRP [RRP6],3.08 ± 0.11,3.29 ± 0.085,3.28 ± 0.063,3.3 ± 0.062
PSVIHSSVEMLLDVVKG [YDL116W/NUP84],2.56 ± 0.085,1.85 ± 0.11,2.2 ± 0.057,1.42 ± 0.038
PSYSPTSPGYSPGSPAY [RPO21],2.52 ± 0.067,2.27 ± 0.053,2.33 ± 0.1,2.02 ± 0.043
PSYVHFKVQIIELLSYL [YML103C/NUP188],1.41 ± 0.063,2.27 ± 0.065,1.8 ± 0.072,2.04 ± 0.05
PTAKDVEVIKQLSLDAS [GAL11],3.08 ± 0.13,2 ± 0.07,1.82 ± 0.1,2.28 ± 0.073
PTDQNNQSNLNGGNNTQ [SNF2],2.46 ± 0.083,3.03 ± 0.072,3.13 ± 0.079,3.01 ± 0.063
PTIEEDLTRVYKAISAQ [FAS2],2.22 ± 0.051,2.21 ± 0.041,2.75 ± 0.056,2.32 ± 0.042
PTRIRTKSSKEFFNTLR [RRI2],2.73 ± 0.13,3.01 ± 0.15,3.06 ± 0.081,2.91 ± 0.11
PTVNRVPNYEVSEKAFL [RPN7],1.14 ± 0.12,1.68 ± 0.1,1.79 ± 0.22,1.18 ± 0.17
PVEKVQRIAKNDPEYMD [DLS1],2.75 ± 0.27,3.29 ± 0.14,3.17 ± 0.12,3.31 ± 0.087
PVKQSFIRKYINQKALR [GAL11],1.61 ± 0.12,1.59 ± 0.07,1.61 ± 0.099,1.77 ± 0.08
PVMADLNGGLQFVPELK [FAS2],1.78 ± 0.069,2.19 ± 0.076,2.07 ± 0.077,2.01 ± 0.056
PVTIWLFEQIGIRIKGK [SME1],2.42 ± 0.057,2.28 ± 0.053,2.35 ± 0.066,2.45 ± 0.039
PVTSIPSTNKKLSISNA [GAL11],2.29 ± 0.061,2.67 ± 0.056,2.53 ± 0.058,2.8 ± 0.058
PWDTSLEVGRRFSPDED [MCD1],3.25 ± 0.14,3.44 ± 0.19,3.28 ± 0.15,3.41 ± 0.17
QAAAKPSLEKSSFTFGS [YLR335W/NUP2],3.04 ± 0.1,2.97 ± 0.1,2.97 ± 0.18,2.73 ± 0.075
QAESMKFKLLNGLAIRR [RPS3],1.69 ± 0.069,2.3 ± 0.085,1.48 ± 0.12,2.58 ± 0.1
QALDAVRMRLAQLTHSL [MED8],1.58 ± 0.04,1.58 ± 0.047,1.54 ± 0.065,1.5 ± 0.035
QARDNSQVFGVARIYAS [RPS14A],1.9 ± 0.066,2.12 ± 0.057,1.84 ± 0.087,2.23 ± 0.045
QASGITAGAAANALGGL [SSN3],2.56 ± 0.071,1.91 ± 0.068,2.13 ± 0.093,2.02 ± 0.058

Sequence,protein stability index (doa10∆),protein stability index (pdr5∆),protein stability index (san1∆),protein stability index (ubr1∆)
QAVNNLIKTLSTLHMLG [RPP1],2.5 ± 0.053,2.45 ± 0.058,2.38 ± 0.071,2.47 ± 0.042
QAYFSRLELPVDFQNDL [BRR2],2.65 ± 0.15,2.1 ± 0.064,2.54 ± 0.066,2.32 ± 0.044
QCNYSSLVFNRKLAVER [PRE5],2.23 ± 0.2,1.5 ± 0.18,1.46 ± 0.19,1.67 ± 0.2
QDDIDEMVENSSENNQI [SRP68],3.35 ± 0.1,3.25 ± 0.11,2.97 ± 0.14,3.35 ± 0.088
QDEVNKGPAIDELSSKE [NNF1],3.23 ± 0.061,3.36 ± 0.081,3.34 ± 0.077,3.24 ± 0.057
QDKMFVSNPIRKVFKPS [FAS1],3.01 ± 0.058,2.62 ± 0.054,2.03 ± 0.1,2.68 ± 0.06
QDMEAAKEVYKIHQQLL [GAL11],3.41 ± 0.22,3.41 ± 0.13,3.5 ± 0.11,3.41 ± 0.12
QDMQLKIWSVKDGSNPR [RPN14],2.99 ± 0.097,2.86 ± 0.088,2.45 ± 0.1,2.62 ± 0.075
QDPIFGSVLLTLLNFVS [ECM29],1.63 ± 0.049,1.42 ± 0.052,1.5 ± 0.098,1.41 ± 0.063
QDSMSKGTGEESNDRIN [YGR119C/NUP57],3.33 ± 0.098,3.22 ± 0.15,3.23 ± 0.09,3.38 ± 0.057
QDSNVMPGSQINSPMPQ [SNF2],3.26 ± 0.2,3.12 ± 0.11,3.32 ± 0.12,3.12 ± 0.17
QDVLKGSSASSRKAHGL [POP1],3.27 ± 0.062,3.06 ± 0.064,3.1 ± 0.059,3.14 ± 0.067
QDVQRTCILHGPVAAQF [FAS1],2.12 ± 0.078,2.54 ± 0.057,2.02 ± 0.08,2.44 ± 0.044
QEEGSFEFGNMKATSNT [FAS2],3.28 ± 0.05,3.38 ± 0.07,3.14 ± 0.056,3.17 ± 0.042
QEFDSELSKEEKERLES [SMC3],2.97 ± 0.12,2.96 ± 0.16,2.98 ± 0.058,3.06 ± 0.081
QEGIEAIATTVIAHLTV [RET1],1.86 ± 0.057,1.93 ± 0.05,1.84 ± 0.059,2.01 ± 0.033
QEITTNLENHFKKSKID [SCL1],3.12 ± 0.089,3.15 ± 0.08,3.1 ± 0.06,3.22 ± 0.063
QELEKRMPMDFKGVIVK [PRE1],1.77 ± 0.18,–,2.8 ± 0.12,1.81 ± 0.071
QELGFCELLKLTNEDPP [SSN2],3 ± 0.12,3.12 ± 0.069,2.83 ± 0.1,3.02 ± 0.066
QERNKIHQYLFQEGVVV [RPS10B],1.27 ± 0.06,1.39 ± 0.044,1.45 ± 0.09,1.45 ± 0.037
QFCAFDSSSNTYRSRAQ [SIN4],2.82 ± 0.075,2.37 ± 0.08,2.81 ± 0.05,2.39 ± 0.057
QFIYAGKKASLNVGNVL [RPL2A],2.59 ± 0.092,2.81 ± 0.11,2.86 ± 0.11,2.8 ± 0.092
QFSLPNGDNSTTTNTDQ [SNF12],2.47 ± 0.047,2.2 ± 0.055,2.318 ± 0.014,2.31 ± 0.05
QGATNEGYQNDINTIKL [SRP72],3.54 ± 0.27,3.15 ± 0.17,2.46 ± 0.23,–
QGISGSQQNIVPNSSDQ [SNF2],2.92 ± 0.05,3.11 ± 0.06,3.16 ± 0.041,2.95 ± 0.053
QGIVPDIIMNPHGFPSR [RET1],2.64 ± 0.05,2.76 ± 0.057,2.74 ± 0.042,2.56 ± 0.037
